Patent US20050260733A1, “Proteases and uses thereof” (WYETH, priority 2004, published 2005)
Like-named read-outs stand apart in the source and are kept apart here.

What was measured:
[1] = molecular target: undigested bovine aggrecan (bovine) (UniProt P13608); test: cell-based or functional assay
[2] = molecular target: undigested bovine aggrecan (bovine) (UniProt P13608); test: cell-based or functional assay; remark: listed apart in the source

Sequence of undigested bovine aggrecan (bovine) (P13608 20-2364): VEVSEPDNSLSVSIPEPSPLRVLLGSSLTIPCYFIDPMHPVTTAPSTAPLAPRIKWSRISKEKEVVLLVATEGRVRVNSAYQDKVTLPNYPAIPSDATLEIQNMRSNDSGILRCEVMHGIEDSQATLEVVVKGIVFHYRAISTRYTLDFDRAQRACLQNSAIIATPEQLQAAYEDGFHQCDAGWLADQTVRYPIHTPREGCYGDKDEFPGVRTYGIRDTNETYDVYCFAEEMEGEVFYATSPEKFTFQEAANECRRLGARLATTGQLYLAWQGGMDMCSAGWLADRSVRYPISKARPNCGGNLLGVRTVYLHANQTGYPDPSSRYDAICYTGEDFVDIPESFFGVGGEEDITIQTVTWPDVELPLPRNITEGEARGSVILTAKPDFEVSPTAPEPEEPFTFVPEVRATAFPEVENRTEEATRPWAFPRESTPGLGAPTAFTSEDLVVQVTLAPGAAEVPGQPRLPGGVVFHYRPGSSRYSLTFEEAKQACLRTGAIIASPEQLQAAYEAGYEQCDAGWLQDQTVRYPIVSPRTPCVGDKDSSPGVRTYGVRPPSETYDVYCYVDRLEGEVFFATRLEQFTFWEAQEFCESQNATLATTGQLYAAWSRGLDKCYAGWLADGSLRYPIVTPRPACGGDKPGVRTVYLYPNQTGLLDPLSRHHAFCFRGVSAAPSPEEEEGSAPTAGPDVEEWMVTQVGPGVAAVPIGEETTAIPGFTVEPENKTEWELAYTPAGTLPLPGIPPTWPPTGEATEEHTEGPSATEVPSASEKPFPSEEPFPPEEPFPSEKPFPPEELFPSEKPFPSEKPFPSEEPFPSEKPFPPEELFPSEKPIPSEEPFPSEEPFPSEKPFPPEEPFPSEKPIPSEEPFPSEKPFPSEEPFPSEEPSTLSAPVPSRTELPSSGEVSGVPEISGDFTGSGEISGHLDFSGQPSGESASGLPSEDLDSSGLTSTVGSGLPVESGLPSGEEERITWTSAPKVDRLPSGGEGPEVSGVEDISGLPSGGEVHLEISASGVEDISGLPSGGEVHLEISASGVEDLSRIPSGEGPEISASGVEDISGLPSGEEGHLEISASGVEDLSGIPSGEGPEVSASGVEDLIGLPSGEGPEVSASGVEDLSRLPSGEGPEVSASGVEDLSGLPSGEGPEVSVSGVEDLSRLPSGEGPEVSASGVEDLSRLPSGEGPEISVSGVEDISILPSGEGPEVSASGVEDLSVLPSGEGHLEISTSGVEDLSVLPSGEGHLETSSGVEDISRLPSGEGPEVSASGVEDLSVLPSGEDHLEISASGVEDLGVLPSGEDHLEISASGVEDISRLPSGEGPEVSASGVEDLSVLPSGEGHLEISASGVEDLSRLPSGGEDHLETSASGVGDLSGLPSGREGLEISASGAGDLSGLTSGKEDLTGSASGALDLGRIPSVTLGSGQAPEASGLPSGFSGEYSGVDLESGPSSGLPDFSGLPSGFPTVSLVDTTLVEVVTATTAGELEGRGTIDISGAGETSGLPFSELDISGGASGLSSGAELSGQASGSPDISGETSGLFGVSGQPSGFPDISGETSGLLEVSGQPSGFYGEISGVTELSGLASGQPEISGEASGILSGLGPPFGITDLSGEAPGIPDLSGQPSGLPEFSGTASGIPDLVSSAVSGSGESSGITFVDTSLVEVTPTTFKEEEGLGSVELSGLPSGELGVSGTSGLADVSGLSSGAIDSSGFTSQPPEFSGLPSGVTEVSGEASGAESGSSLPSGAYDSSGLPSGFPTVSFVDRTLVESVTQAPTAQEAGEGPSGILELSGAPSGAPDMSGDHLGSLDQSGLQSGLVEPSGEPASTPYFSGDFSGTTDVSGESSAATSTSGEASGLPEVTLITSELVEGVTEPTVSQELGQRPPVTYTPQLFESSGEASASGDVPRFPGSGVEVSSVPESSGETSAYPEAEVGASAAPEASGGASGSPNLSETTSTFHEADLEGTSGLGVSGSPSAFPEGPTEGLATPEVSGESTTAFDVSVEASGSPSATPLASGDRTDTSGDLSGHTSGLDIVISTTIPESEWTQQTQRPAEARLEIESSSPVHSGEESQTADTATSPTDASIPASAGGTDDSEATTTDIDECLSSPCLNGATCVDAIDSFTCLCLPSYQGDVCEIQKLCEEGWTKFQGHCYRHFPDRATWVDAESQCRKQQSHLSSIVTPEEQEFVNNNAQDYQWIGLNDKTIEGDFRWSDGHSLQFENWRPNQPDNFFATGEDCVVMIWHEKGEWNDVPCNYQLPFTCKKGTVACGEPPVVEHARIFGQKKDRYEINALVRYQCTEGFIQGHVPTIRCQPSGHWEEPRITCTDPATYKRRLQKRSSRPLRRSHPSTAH

- amount of enzyme needed for 45% inhibition in the competitive inhibition ELISA for aggrecanase activity [1]: 1 ng
- amount of enzyme needed for 45% inhibition in the competitive inhibition ELISA for aggrecanase activity [2]: 0.0135 pM
Substance: recombinant ADAMTS-4 (from UniProt O75173 213-694) (enzyme)
